Source: US11819552B2, “Antibody-drug conjugates targeting uPARAP” (RIGSHOSPITALET, priority 2016, dated 2023)
“Also recorded” adds a separate entry of the source.

Molecular target: T1, mouse uPARAP (Mus musculus, UniProt Q64449)
T1 sequence (Q64449 31-1479): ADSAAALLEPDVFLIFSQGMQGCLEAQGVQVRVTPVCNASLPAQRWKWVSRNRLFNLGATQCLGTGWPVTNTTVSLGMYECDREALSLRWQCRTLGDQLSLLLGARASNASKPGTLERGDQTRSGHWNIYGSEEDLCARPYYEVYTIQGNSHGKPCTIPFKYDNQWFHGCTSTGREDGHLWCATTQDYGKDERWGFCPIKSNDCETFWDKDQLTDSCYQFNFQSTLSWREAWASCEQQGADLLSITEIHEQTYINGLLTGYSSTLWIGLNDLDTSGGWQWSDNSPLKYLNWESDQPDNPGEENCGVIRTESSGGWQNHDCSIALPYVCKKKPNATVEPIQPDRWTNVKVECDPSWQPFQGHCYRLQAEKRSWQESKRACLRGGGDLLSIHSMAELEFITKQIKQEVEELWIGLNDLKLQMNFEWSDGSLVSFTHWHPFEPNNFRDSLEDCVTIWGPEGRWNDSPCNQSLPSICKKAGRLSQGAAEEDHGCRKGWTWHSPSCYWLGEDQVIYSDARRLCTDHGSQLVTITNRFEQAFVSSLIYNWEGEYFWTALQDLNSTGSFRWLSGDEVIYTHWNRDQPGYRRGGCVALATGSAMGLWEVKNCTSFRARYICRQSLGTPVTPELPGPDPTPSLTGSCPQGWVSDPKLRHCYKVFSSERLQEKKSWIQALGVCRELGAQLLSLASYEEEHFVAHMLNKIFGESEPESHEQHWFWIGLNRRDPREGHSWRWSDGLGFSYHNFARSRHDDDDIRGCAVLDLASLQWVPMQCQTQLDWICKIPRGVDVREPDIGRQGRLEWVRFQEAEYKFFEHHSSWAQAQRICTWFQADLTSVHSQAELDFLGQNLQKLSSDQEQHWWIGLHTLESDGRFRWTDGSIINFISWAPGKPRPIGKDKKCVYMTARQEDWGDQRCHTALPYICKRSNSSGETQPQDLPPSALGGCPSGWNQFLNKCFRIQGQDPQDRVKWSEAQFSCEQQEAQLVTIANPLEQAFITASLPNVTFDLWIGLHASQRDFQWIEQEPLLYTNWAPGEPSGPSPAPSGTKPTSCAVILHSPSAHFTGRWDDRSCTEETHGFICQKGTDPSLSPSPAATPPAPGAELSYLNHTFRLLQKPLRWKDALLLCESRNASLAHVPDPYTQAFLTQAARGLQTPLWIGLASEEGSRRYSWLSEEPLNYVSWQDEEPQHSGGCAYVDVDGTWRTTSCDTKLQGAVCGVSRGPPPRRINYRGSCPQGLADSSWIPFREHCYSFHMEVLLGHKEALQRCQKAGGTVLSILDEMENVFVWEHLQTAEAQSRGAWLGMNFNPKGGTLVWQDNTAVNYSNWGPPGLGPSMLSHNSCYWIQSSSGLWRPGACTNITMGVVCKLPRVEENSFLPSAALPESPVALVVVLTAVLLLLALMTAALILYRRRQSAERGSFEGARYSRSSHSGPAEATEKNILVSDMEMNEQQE
Assay: Antibody reactivity with uPARAP
Assay type: binding
Details: listed as 2h9

B1: mAb 2h9: mouse monoclonal IgG1k anti-uPARAP antibody clone 2.h.9: F12, produced by hybridoma cell culture (protein)
light: DIQMTQSPASQSASLGESVTITCLASQTIGTWLAWYQQKPGKSPQLLIYAATTLTDGVPSRFSGAGSGTKFSLKISSLQAEDFASYFCQEFFSTPFTFGSGTKLELKRADAAPTVSIFPPSSEQLTSGGASVVCFLNNFYPKDINVKWKIDGGERQNGVLNSWTDQDSKDSTYSMSSTLTLTKDEYERHNSYTCEATHKTSTSPIVKSFNRNEC
heavy: QVQLQQPGTELVRPGLSVKLSCKASGYTFTSYWMNWVKQRPGQGLEWIGMIHPSNDEKRINQKFKDKATLTVDKFSSTVYMQVSSPTSEDSAVYYCARGGGDYVGDYALDFWGQGTSVTVSSAKTTPPSVYPLAPGSAAQTNSMVTLGCLVKGYFPEPVTVTWNSGSLSSGVHTFPAVLQSDLYTLSSSVTVPSSTWPSETVTCNVAHPASSTKVDKKIVPRDCGCKPCICTVPEVSSVFIFPPKPKDVLTITLTPKVTCVVVDISKDDPEVQFSWFVDDVEVHTAQTQPREEQFNSTFRSVSELPIMHQDWLNGKEFKCRVNSAAFPAPIEKTISKTKGRPKAPQVYTIPPPKEQMAKDKVSLTCMITDFFPEDITVEWQWNGQPAENYKNTQPIMDTDGSYFIYSKLNVQKSNWEAGNTFTCSVLHEGLHNHHTEKSLSHSPGK
  Reactivity with mouse uPARAP: reactive against both human and murine uPARAP; also recorded: reacts with both human and mouse uPARAP
